Paper PMC3625974 (Structure (London, England : 1993), 2012)

Columns and labels:
TorT (vpTorT) = TorT (vpTorT) (Vibrio parahaemolyticus, UniProt Q87ID2); assay: ITC; format: binding
[1] = target: vpTorSS-TorSS dimer: two copies of vpTorSS (51-323) fused via a flexible linker [LN(SG)10A3] (V. parahaemolyticus); assay: AUC
[2] = target: isolated vpTorSS sensor domain, GSGS-TorS(51-323) (V. parahaemolyticus); assay: AUC
[3] = target: isolated vpTorSS sensor domain, GSGS-TorS(51-323) (V. parahaemolyticus); assay: native gel or EMSA + SEC
TorS (Escherichia coli) = TorS (Escherichia coli) (UniProt P39453); conditions: cited from earlier work

Sequence of TorT (P38683 19-342): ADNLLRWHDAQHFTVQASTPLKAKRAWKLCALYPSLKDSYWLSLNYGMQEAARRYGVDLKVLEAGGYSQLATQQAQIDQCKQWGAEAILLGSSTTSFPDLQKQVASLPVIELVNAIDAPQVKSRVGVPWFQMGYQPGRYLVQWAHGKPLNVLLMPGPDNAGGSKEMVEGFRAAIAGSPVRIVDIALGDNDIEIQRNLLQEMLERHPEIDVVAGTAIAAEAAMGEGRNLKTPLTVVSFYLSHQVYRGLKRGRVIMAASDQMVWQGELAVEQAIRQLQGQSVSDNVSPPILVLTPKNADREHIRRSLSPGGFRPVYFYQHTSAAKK

Compound `C[N+](C)(C)[O-]` [TMAO, trimethylamine-N-oxide] has a Kd (TorT (vpTorT)) of 1360 nM.
Compound “periplasmic binding protein TorT from V. parahaemolyticus, GSGS-TorT(29-329) (natural protein)” has a Kd [1] of 1790 nM, a stoichiometry N (TorT per TorSS (2:2)) [2] of 1 and a stoichiometry N (TorT per TorSS (2:2)) [3] of 1.
For TorT (from UniProt P38683), the Kd (TorS (Escherichia coli)) is listed as 10 nM.
